This is an account of results in the nanobody polyreactivity screen of Harvey et al. (2022).

A short description of the data set: yeast display, Sf9 membrane polyspecificity reagent, FACS + sequencing; frameworks hold sequencing errors. In short, it runs like this: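 Galactose-induced (36–48 hours) yeast carrying a synthetic nanobody display library were exposed to 10% biotinylated, detergent-solubilized Sf9 membrane reagent at 4 °C for 1 hour. FACS followed streptavidin microbead enrichment, using low and high (top ~1%) gates for expression (anti-HA) and reagent binding (streptavidin). Colony PCR, MiSeq 2 × 250 sequencing and CDR-length filtering followed. Labels for polyreactivity reflect the gate of origin.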
With “QVQLVESGGGLVQAGGSLRLSCAASGRTFVVYAMGWYRQAPGKERELVAVIRVIGGSTNYADSVKGRFTISRDNAKNTVYLQMNSLKPEDTAVYYCAADGVVVVAADMYYWGQGTQVTVSS”, the “polyreactivity (PSR sort gate)” value is “low polyreactivity”.

Take “QVQLVESGGGLVQAGGSLRLSCAASGRTFVWNAMGWYRQAPGKERELVAAIDWSGGSTYYADSVKGRFTISRDNAKNTVYLQMNSLKPEDTAGYYCAKEYWYRALWYNYWGQGTQVTVSS”: the “polyreactivity (PSR sort gate)” value is on record as “high polyreactivity”. “QVQLVESGGGLVQAGGSLRLSCAASGRTFVWNAMGWYRQAPGKERELVAAISSSGTSTYYADSVKGRFTISRDNAKNTVYLQMNSLKPEDTAVYYCAKDLLYQPTIRDYWGQGTQVTVSS”: the “polyreactivity (PSR sort gate)” value is on record as “low polyreactivity”. Regarding “QVQLVESGGGLVQAGGSLRLSCAASGRTFVYNAMGWYRQAPGIERELVAAITTSGASTYYADSVKGRFTISRDNAKNTVYLQMNSLKPEDTAVYDCNAYSRYSYGRTYGYWGQGTQVTVSS”, the “polyreactivity (PSR sort gate)” value is “high polyreactivity”. The entry for “QVQLVESGGGLVQAGGSLRLSCAASGRTFVYNAMGWYRQAPGKERELVATITFSGGSTYYADSVKGRFTISRDNAKNTVYLQMNSLKPEDTAVYYCNTQGVHHYYHAPQVRGYDYWGQGTQVTVSS” is “low polyreactivity”; for “QVQLVESGGGLVQAGGSLRLSCAASGRTFVYNVMGWYRQAPGKERELVAAISSGGSTNYADSVKGRFTISRDNGKNTVYVQMNSLKPEDTAVYYCNAGTLYYRYRWGHYYDSWGQGTQVTVSS” it is “low polyreactivity”; for “QVQLVESGGGLVQAGGSLRLSCAASGRTFVYTMGWYRQAPGKERELVAAIRYSGGRTYYADSVKGRFTISRDNAKNTVYLQMNSLKPEDTAVYYCAARNYATGVRYDYWGQGTQVTVSS” it is “high polyreactivity”. Regarding “QVQLVESGGGLVQAGGSLRLSCAASGRTFVYYAMGWYRQAPGKEREFVATISDGGGTYYADSVKGRFTISRDNAKNTVYLQMNSMNPEDSAVYYCNARGTPWRYGGDYWGQGTQVTVSS”, the “polyreactivity (PSR sort gate)” value is reported as “low polyreactivity”. “QVQLVESGGGLVQAGGSLRLSCAASGRTFVYYAMGWYRQAPGKEREFVATITSSGGSTYYADSVKGRFTISRDNAKNTVYLQMNSLKPEDTAVYYCSASPYIRYSKVSKYYYWGQGTQVTVSS”: the “polyreactivity (PSR sort gate)” value was “high polyreactivity”.

Turning to “QVQLVESGGGLVQAGGSLRLSCAASGRTFWANAMGWYRQAPGKERELVAAINYSGGRTYYADSVKGRFTISRDNAKNTVYLQMNSLKPEDTAVYYCNVVHGGAISDYWGQGTQVTVSS”, the “polyreactivity (PSR sort gate)” value was “high polyreactivity”. For “QVQLVESGGGLVQAGGSLRLSCAASGRTFWAYAMGWYRQAPGKERELVAAITASGTRTYYADSVKGRFTISRDNAKNTVYLQMNSLKPEDTAVYYCAAERIWWAHAYPTYVANDYWGQGTQVTVSS”, the “polyreactivity (PSR sort gate)” value was “high polyreactivity”. Take “QVQLVESGGGLVQAGGSLRLSCAASGRTFWFYGMGWYRQAPGKERELVADITSGGGTYYADSVKGRFTISRDNAKNTVYLQMNSLKPEDTAVYYCNAYKTHVVPATYDSEEYWGQGTQVTVSS”: the “polyreactivity (PSR sort gate)” value was “low polyreactivity”. Take “QVQLVESGGGLVQAGGSLRLSCAASGRTFWGNAMGWYRQAPGKERELVASISSRGSSTYYADSVKGRFTISRDNAKNTVYLQMNSLKPEDTAVYYCAARTHYFPWPWYVWDYDSWGQGTQVTVSS”: the “polyreactivity (PSR sort gate)” value is “low polyreactivity”. On to “QVQLVESGGGLVQAGGSLRLSCAASGRTFWLYAMGWYRQAPGKARELVASITRDGTSTYYADSVKGRFTISRDNPKNTVYLQMNSLKPEDTAVYYCAAVYHSKSRTIYWGQGTQVTVSS”, for which the “polyreactivity (PSR sort gate)” value is reported as “high polyreactivity”.

On to “QVQLVESGGGLVQAGGSLRLSCAASGRTFWLYAMGWYRQAPGKEREFVASISSSGDSTYYADSVKGRFTISRDNAKNTVYLQMNSLKPEDTAVYYCAARPSRRYLRNGLDYWGQGTQVTVSS”, for which the “polyreactivity (PSR sort gate)” value was “high polyreactivity”. For “QVQLVESGGGLVQAGGSLRLSCAASGRTFWNYAMGWYIQAPGKEREFVAVIRFSDGSTYYADSVKGRFTISRDNAKNTVYLQMNSLKPEDTAVYYCAAKGPRRWGSGFDYWGQGTQLTVSS”, the “polyreactivity (PSR sort gate)” value is recorded as “low polyreactivity”. On to “QVQLVESGGGLVQAGGSLRLSCAASGRTFWRNTMGWYRQAPGKQREFVAASTFSGVRTYYADSVKGRFTISRDNAKNTVYLQMNSLKPEDTAVYYCAKSRQYIGGFDYWGQGTQVTVSS”, for which the “polyreactivity (PSR sort gate)” value is given as “high polyreactivity”.

As for “QVQLVESGGGLVQAGGSLRLSCAASGRTFWRYAMGWYRQAPGKERELVAAISSGGRTNYADSVKGRFTISRDNAKNTVYLQMNSLKPEDTAVYYCAVKTVRSSSRNYWGQGTQVTVSS”, the “polyreactivity (PSR sort gate)” value was “high polyreactivity”. Consider “QVQLVESGGGLVQAGGSLRLSCAASGRTFWSNAMGWYRQAPGKEREFVAVISRSGSTTYYADSVKGRYTISRDNAKKTVYLQMISLKPEDTAFYNCAADRVRSYFSRYYSTPLDYYWGQGTQVTVSS”, for which the “polyreactivity (PSR sort gate)” value is given as “high polyreactivity”. As for “QVQLVESGGGLVQAGGSLRLSCAASGRTFWSNAMGWYRQAPGKERELVAAISGGARTNYADSVKGRFTISRDNAKNTVYLQMNSLKPEDTAVYYCAATPRYWQSRYDYWGQGTQVTVSS”, the “polyreactivity (PSR sort gate)” value is recorded as “high polyreactivity”. In the case of “QVQLVESGGGLVQAGGSLRLSCAASGRTFWSYAMGWYRQAPGKEREFVAAISYSGSSTYADSVKGRFTISRDNAKNTVYLQMNSLKPEDTAVYYLLRGQGTQVTVSS”, the “polyreactivity (PSR sort gate)” value is “low polyreactivity”.

Regarding “QVQLVESGGGLVQAGGSLRLSCAASGRTFWVNAMGSYRQAPGKERELVATIRGSGVSTYYADSVKGRFTISRDNAKNTVYLQMNSLKPEDTAVYYCAAGFAGGYGVTFDYCGQGTQVTVSS”, the “polyreactivity (PSR sort gate)” value is “low polyreactivity”. Consider “QVQLVESGGGLVQAGGSLRLSCAASGRTFWVNTMGWYRQAPGKERELVAGITRSGTRTYYADSVKGRFTISRDNAKNTVYLQMNSLKPEDTAVYYCATGPWRYRYDYWGQGTQVTVSS”, for which the “polyreactivity (PSR sort gate)” value is “low polyreactivity”.

On to “QVQLVESGGGLVQAGGSLRLSCAASGRTFWVYAMGWNRQATGKERELVATISKSAGITSYADSVKGRFTFSRDNAKNTVYLQMNSLKPEDTAVYYCAADKSYRRVYYWGQGTQVTVSS”, for which the “polyreactivity (PSR sort gate)” value is “low polyreactivity”.

Consider “QVQLVESGGGLVQAGGSLRLSCAASGRTFWVYAMGWYRQAPGKEREFVAAISGSVGSTYYADSVKGRFTISRDNAMKTVYLQMNSLKPEDTAVYYCAARQRRSEYGYWGQGTQVTVSS”, for which the “polyreactivity (PSR sort gate)” value is given as “high polyreactivity”. Regarding “QVQLVESGGGLVQAGGSLRLSCAASGRTFWVYAMGWYRQAPGKERELVASIRRGGSTYYADSVKGRFTISRDNAKNTVYLQMNSLKPEDTAVYYCAAERPYKTFGYGYWGQGTQVTVSS”, the “polyreactivity (PSR sort gate)” value is listed as “high polyreactivity”. Consider “QVQLVESGGGLVQAGGSLRLSCAASGRTFWYNAMGWYRQAPGKERELVATISPGGRTYYADSVKGRFTISRDNAKNTVYLQMNSVKPEDTAVYYCDASSSFSRYGVVPYYYWGQGTQVTVSS”, for which the “polyreactivity (PSR sort gate)” value is “high polyreactivity”.

Turning to “QVQLVESGGGLVQAGGSLRLSCAASGRTFWYYAMGWSRQAPGKERELVAGITFTGGRTYYADSVKGRFTISRDNAKNTVYLQMNSLKPEDTAVYYCAAAGLDVGRKDRDGYWGQGTQVTVSS”, the “polyreactivity (PSR sort gate)” value is listed as “low polyreactivity”.

Regarding “QVQLVESGGGLVQAGGSLRLSCAASGRTFWYYAMGWYRQAPGKERELVAAISYSGDGTYYADSVKGRVTISRDNAKNTVYLPMHSLKPEDTAVYYCAAEWYEPTLPTAWSEYEYWGQGTQVTVSS”, the “polyreactivity (PSR sort gate)” value is on record as “high polyreactivity”.

For “QVQLVESGGGLVQAGGSLRLSCAASGRTFWYYAMGWYRQAPGKERELVARISTGGSTNYADSVKGRFTISRDNAKNTVYLQMNSLKPEDTAVYYCAARPVWRRPSKFDYWGQGTQVTVSS”, the “polyreactivity (PSR sort gate)” value is on record as “high polyreactivity”.

For the sequence “QVQLVESGGGLVQAGGSLRLSCAASGRTFWYYGMGWYRQAPGKERELVAAISRSGGRTYYADSVKGRFTISRDNAKNTVYLQMNSLKPEDTAVYYCVASYRRTFDYWGHGTQVTVSS”, the “polyreactivity (PSR sort gate)” value is listed as “high polyreactivity”.

With “QVQLVESGGGLVQAGGSLRLSCAASGRTFWYYTMGWYRQAPGKEREFVAAIRGSGTSTYYADSGKARFTISRDNAKNNVYLQMNSLKPEDTAVYYCAAESPVYHLVTYDYWGQGTQVTVSW”, the “polyreactivity (PSR sort gate)” value is on record as “high polyreactivity”. For “QVQLVESGGGLVQAGGSLRLSCAASGRTFWYYTMGWYRQAPGKERELVAAITRRGGSTYYADSVKGRFTLSRDKAKNTVYLQMNSLKPEDTAVYYCARGGSRLTQGWLVTPYDYDYWGQGTQVTVSS”, the “polyreactivity (PSR sort gate)” value is given as “high polyreactivity”. For “QVQLVESGGGLVQAGGSLRLSCAASGRTFWYYTMGWYRQAPGKERELVAAITSGGSTYYADSVKGRFTISRDNAKNTVYLQMNSLKPEDTAVYYCAAYLYWDFTYYYALVDYWGQGTQVTVSS”, the “polyreactivity (PSR sort gate)” value is recorded as “high polyreactivity”. In the case of “QVQLVESGGGLVQAGGSLRLSCAASGRTFWYYTMGWYRQAPGKERELVASITYRGGSTYYADSVKGRFTISRDNAKNTDYLQMNSLKPEDTAVYYCNARYKRYSYDYWGQGTQVTVSS”, the “polyreactivity (PSR sort gate)” value was “high polyreactivity”. Consider “QVQLVESGGGLVQAGGSLRLSCAASGRTFYANTMGWYRPAPGKERELVASITSRGTSTYYADSVKGRFTISRDNAKNTVYLEMNSLKPEDTAVYYCAKAFIAPQYAWGGDYWGQGTQVTVSS”, for which the “polyreactivity (PSR sort gate)” value is listed as “high polyreactivity”. Consider “QVQLVESGGGLVQAGGSLRLSCAASGRTFYAYAMGLYRQAPGKERELVASIRWSSGSTNYADSVKRRFTISRDYAKITVYLQMNILKAEDTAVYYCAARYYYYGGHRLYWGQGTQLTVSS”, for which the “polyreactivity (PSR sort gate)” value was “high polyreactivity”. As to “QVQLVESGGGLVQAGGSLRLSCAASGRTFYAYAMGWYRQAPGKERELVAAITSGASTYYADSVKGRFTISRDNAKNTVYLQMNRLKPEDTAVYYCAKRVRYYKPGYDYWGQGTQVTVSS”, the “polyreactivity (PSR sort gate)” value is “low polyreactivity”. The result for “QVQLVESGGGLVQAGGSLRLSCAASGRTFYDYAMGWYRQAPGKERELVASITGGASTNYADSVKGRFTISRDNAKNTVYLQMNSLKPEDTAVYYCAGRLYRGNVWDILLGGDYWGQGTQVTVSS” reads “low polyreactivity”; that for “QVQLVESGGGLVQAGGSLRLSCAASGRTFYFNAMGWYRQAPGKERELVAGISGDGSTNYADSVKGRFTISRDNAKNTVYLQMNSLKPEDTAVYYCAARIRPGYRTWYYSWGQGTQVTVSS”, “low polyreactivity”. As to “QVQLVESGGGLVQAGGSLRLSCAASGRTFYFNGMGWSRQAPGKETELVAVITKSGGDTYYADSVKGRFTISRDNAKNTVYLQMNSLKPEDTAVYYCAAVYGYYTYWIPGFTWAVDYWGQGTQVTVSS”, the “polyreactivity (PSR sort gate)” value is “low polyreactivity”.
